# Assay results as given in patent EP1433851A2.
# Molecular target: FITC-labeled CD4 (UniProt P01730)
# Test: size exclusion HPLC (Biosil 250); CD4-FITC alone eluted at 2.67 minutes
substance,measurement,value
"US4 gp120, purified from CHO cell culture supernatant",retention time of the complex,2.17 min
"oligomeric gp140 US4 (o-gp140 US4), purified from CHO cell culture supernatant",retention time of the complex,1.9 min
